Laboratory results as given in doi:10.1101/2020.06.25.170399 (bioRxiv, 2020).

Molecular target: T1, γ subunit of human NAD-dependent isocitrate dehydrogenase (IDH3) (human, UniProt P51553 40-393)
T1 sequence: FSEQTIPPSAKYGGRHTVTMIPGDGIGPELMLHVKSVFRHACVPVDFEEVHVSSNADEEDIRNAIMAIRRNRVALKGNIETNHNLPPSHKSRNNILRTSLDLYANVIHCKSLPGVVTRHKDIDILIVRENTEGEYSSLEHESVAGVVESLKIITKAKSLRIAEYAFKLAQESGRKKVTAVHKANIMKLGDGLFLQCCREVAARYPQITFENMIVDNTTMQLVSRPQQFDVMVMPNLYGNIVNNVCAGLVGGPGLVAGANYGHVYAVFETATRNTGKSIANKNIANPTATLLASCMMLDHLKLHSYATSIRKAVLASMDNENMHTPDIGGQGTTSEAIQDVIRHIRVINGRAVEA
Experiment: SEC-MALS

- binding result: binds
B1: α subunit of human NAD-dependent isocitrate dehydrogenase (IDH3) (natural protein)
chain: TGGVQTVTLIPGDGIGPEISAAVMKIFDAAKAPIQWEERNVTAIQGPGGKWMIPSEAKESMDKNKMGLKGPLKTPIAAGHPSMNLLLRKTFDLYANVRPCVSIEGYKTPYTDVNIVTIRENTEGEYSGIEHVIVDGVVQSIKLITEGASKRIAEFAFEYARNNHRSNVTAVHKANIMRMSDGLFLQKCREVAESCKDIKFNEMYLDTVCLNMVQDPSQFDVLVMPNLYGDILSDLCAGLIGGLGVTPSGNIGANGVAIFESVHGTAPDIAGKDMANPTALLLSAVMMLRHMGLFDHAARIEAACFATIKDGKSLTKDLGGNAKCSDFTEEICRRVKDLD
